Assay: soluble on expression in E. coli; label from the status in PepcDB or PDB records

Row | Sequence | soluble on expression in E. coli
1 | MSNAPLMPKATAVWLLDNTALTFDQVADFTKMHVLEVKAIADGDAAQGIKGMDPISTGQLTRDEIEKGEGDPDYRLKLAESKVVLPQAAKKKGPRYTPVSRRHERPSAILWLVRNHPELKDAQIMRLVGTTKTTIASVRDRTHWNAATLTPMDPVTLGLCSQLDLDFEVQRAAKEKPIDQQYGGATLLPASETTRKEAEFEAATSGKSQEDLDVDAVFAKLKTIGGKKHDDEDEDGGFLEHHHHHH | soluble
2 | MAHHHHHHMLFPTACPDLIAREHLFNTLLNPVVYRWMWGRLRSCFSDSEVMAYTNNLSCVSHSVVCELVNKYPHLHQHVFAGPVTVLNERKEAAVTAHAEPLMVDPVGWTRALAEVCRRDYDVQFALGERLEDAVTYLKYDVESTRSIRVSKPDPSHPEQRLFASEGYDVVILAAGASTGTMTLPNSRLPVLGLSGLSAVVQQPSGALKDAVWSLFQCRPHRSPAAAASSSSPEVDAPSSHEGVADPLARPAPGTLALLSSHCSPVWLHVAQ | soluble
3 | MISLVLGLLTSKLHYEQTYYTEIAKRARLYHNVVAQFTPFCIDSKTDLVSGLIYDTDTGKWKEQTFPIPSYIYDRYSFHEETDFEKAKSIIHSLHNRPSTTFLNNTLINLSELHDLFLTNKKLSPYIPKFEVATIQNIFKLLLKSKDIIIRPTNIHSKDNLYRVAYKNKTFHIDTVNEKYHTSLSIKRTDEFISWCKSNIRSSRYIVHTMLQPPNQLTYPLHIRTILQKNKEQTWNVIGQFIQKSSFPNQLLPSATDDDSLHSFSKIKYVLSSTGVQLLQDALHDIINEVFQTLDQSYSSLFELELSTIMDQKGAIWLMYVNTIPPYEQYIRHSDSLAEKIFHGPLKFSRFTP | not soluble
4 | MGSDKIHHHHHHSCSSKPANTAKGEKGSDKTGKDLELKLSFQEGIAPGESLNEKLDFMEKLGVVGFEPGGGGLAGRVNEIKQALNGRNIKVSAICAGFKGFILSTDPAIRKECMDTMKEIIAAAGELGSTGVIIVPAFNGQVPALPHTMETRDFLCEQFNEMGTFAAQHGTSVIFEPLNRKECFYLRQVADAASLCRDINNPGVRCMGDFWHMTWEETSDMGAFISGGEYLQHVHVASRKRRSMPGEDGDADNYINGFKGLKMIGYNNYVSFECGCQGDRNVVVPAAVKLLREQWEQA | not soluble
5 | MGSDKIHHHHHHMLLHLSTWQEVEAYLQQSKGIIFPIGSTEQHGPTGLIGTDAICAEAIAAGVGDATGAIVGPTINVGMALHHTAFPGTISLRPSTLIQVVRDYVTCLAKAGFSKFYFINGHGGNIATLKAAFSETYAHLEDLQIANAQQVQCQVANWFMCGSVYKLAKELYGDQEGSHATPSEVALTQYVYPEAIKQAPLSPEVASGHRIYSAADFRVRYPDGRMGSNPGLATPEHGKQFYDLAVKELSNGYLEFVNAD | not soluble
6 | MSLENYQFPKDFLWGGAIAANQAEGAFKVDGKGISLADLHKYHKGKTNDEISEEQHKGVSLADIKASMEDKVNYYPKRHGIDFYHTYPEDLALLAEMGFKTFRTSLDWTRIFPTGEETEPNEAGLKYYDQLIDKIIELGMEPIITILHYETPVEIVLNNGGWHNRKVIDLFEKYGKTVLDRYNKKVKYWIVINQINLIQFEPFNSTAIPYDAVDDYLSATYQAVHNQFVASAKIYEYGKALNPDLMIGTMLADCTAYPFSCDPDDIVLAMKRNRMEYFFADVQFQGEYPQYALNYFDENNIHIEITEDDKAVLQKNTMDYLALSYYYSQMVDSKKNDLDPASITPNPHLKANPWGWAVDPKGLYNALSQYWDRYHKPIIIAENGFGMYDKLENGEIHDDYRIDYLSAHLKEMKRAMYDGVEIIAYCAWGPIDIVSCSSAQMEKRYGFIYVDLDNEGNGTGKRIKKDSFSWYKKVIESNGEDLEKGIITITTDPNSSSVDKLAAALEHHHHHH | soluble
7 | MYRGEPGTRAHQQEEHVVDSSPLEPSSSLEDTRVWGHVGVAAAPRLLAQALPKLRCKLPKPQAPLAGHEAQQPRGGLILPLALASELMESSTVQWLSYKQPQVVPVVPQLPRVLWQVQPLEKPGSQSFRNNQPSILLKTRLRFSITRISLFNYHR | soluble
8 | GPGSMFRRLSSSARAVVAARFYTPPEGLKKLYASDFENSKYPLNIVPSDSVLFAKFLYKAAEEKGNFDNILSDFQKIAAAASKLPIFWERTAVVEKIPEFKQLSEPTFFTLVWMQNNGMLELIQEVAEVYETFVNAKQKKAVAKIFVAPGGEKNVEEARRVAEELHKGLKELADYTLVLKTVVDRTIVKGFAVELAGQYVNKAEGQQKQAGRADEVDYTNLPAPKPQKTVWDDNIETEVLRKYLDGLSQYDMEEAKYGV | not soluble
9 | AIALTTNASSKIFSKASTAELVGHTRKVHCLSWNPKGGLLGSGGVDCVARIWDVEKLQQKAELEGHTSSIEQLKWDPTANVFFVSASLDHKVLFWDLRARNSEPVASVETQGENINLAWSQDGVYCAVGDKDDNLSFIDVRKFDFFERFQFAEEVNEFKWSPSGPFFFMTLGKEVLVFRWPTMEQQLRLQVHADRCYCLEFDRSGRYFALGGADSIISLWETEYMLCTWTVDRLEYPIRTISFSHDGQFIAAGSEDSVIDISDILNGRQTYALGVKGATNVVAWHPSRHLLAYATEEEYSRDGVAIHLYGTISKDNI | soluble
10 | MATTTPERVMQETMDYHALNAMLNLYDKAGHIQFDKDQQAIDAFFATHVRPHSVTFASQHERLGTLVREGYYDDAVLARYDRAFVLRLFEHAHASGFRFQTFLGAWKFYTSYTLKTFDGKRYLEHFEDRVTMVALTLAQGDETLATQLTDEMLSGRFQPATPTFLNCGKQQRGELVSCFLLRIEDNMESIGRAVNSALQLSKRGGGVAFLLSNLREAGAPIKRIENQSSGVIPVMKMLEDAFSYANQLGARQGAGAVYLHAHHPDILRFLDTKRENADEKIRIKTLSLGVVIPDITFRLAKENAQMALFSPYDIQRRYGKPFGDIAISERYDELIADPHVRKTYINARDFFQTLAEIQFESGYPYIMFEDTVNRANPIAGRINMSNLCSEILQVNSASRYDDNLDYTHIGHDISCNLGSLNIAHVMDSPDIGRTVETAIRGLTAVSDMSHIRSVPSIAAGNAASHAIGLGQMNLHGYLAREGIAYGSPEALDFTNLYFYTITWHAVHTSMRLARERGKTFAGFAQSRYASGDYFTQYLQDDWQPKTAKVRALFARSGITLPTREMWLKLRDDVMRYGIYNQNLQAVPPTGSISYINHATSSIHPIVAKIEIRKEGKTGRVYYPAPFMTNENLDMYQDAYDIGPEKIIDTYAEATRHVDQGLSLTLFFPDTATTRDINKAQIYAWRKGIKSLYYIRLRQLALEGTEIEGCVSCAL | soluble
11 | MAPIRRSSRLAERYDAIESKKRSLKRLEEQIKAEEEQFSDKMKQLEDEIKIKEQVITMFKRKTVRREWMRNSRQATTNINIAQIESLKLQLEEGEKDIAEAEKQAEPTTPQQEAELSETFKQMVRDRMKVKDVDEKLLQQYMKKENVEFEWRSCFICTMEYSRTDKNLHPIILNCGHNLCRSCINKLTGNGIVKCPFDRLDTRVRVTGLPRNLALINL | not soluble
12 | MPWGWIEALLGHACPGCGGPLDLPALCGRCRAGLEAFSTGEMVYLGHYARVGPLVRALKYGRREALARALAEPLARAVAARGWRLQGVTAVPTLPHRLALRGYNPPEVLARALAKALGVPYRPVLFRRRYTPGQPTRGFKERRFLPGDLFGARVRVEGAWLLVDDVLTSGATFLRARGALLEAGAAHVYGAFLAVRDPRALGPYR | soluble
13 | LHIDTEWRSDFKWDRLAEHISDLSGKYVLDIGCGSGYHLWRMRGAGAKFVVGIDPTQLFLMQFNAIKHFIDDSPVHLLPLGVEQLPELKAFDTVFAMGVLYHRRSPIDFLYQLKAQLVKGGELVLETLIVDG | not soluble
14 | MTHHHHHHAMGPAAGQAYDAGNLDVASSPVKPTLSITKKTLTAAEAPNAKVTMELSVEGAADKYAATGLHIQFDPKLKLIPDEDGALATAGRAARLLELKKAEADTDNSFFTATGSSTNNGKDGVLWSFVLQVPADAQPGDKYDVQVAYQSRTTNEDLFTNVKKDEEGLLMQAWTFTQGIEQGYIQVESTTSLE | soluble
15 | MGSDKIHHHHHHMKKIGIIGGGQLGKMMTLEAKKMGFYVIVLDPTPRSPAGQVADEQIVAGFFDSERIEDLVKGSDVTTYDLEHIDVQTLKKLYNEGYKIHPSPYTLEIIQDKFVQKEFLKKNGIPVPEYKLVKDLESDVREFGFPVVQKARKGGYDGRGVFIIKNEKDLENAIKGETYLEEFVEIEKELAVMVARNEKGEIACYPVVEMYFDEDANICDTVIAPARIEEKYSKIAREIATSVVEALEGVGIFGIEMFLTKQGEILVNEIAPRPHNSGHYTIEACVTSQFEQHIRAIMNLPLGSTELLIPAVMVNLLGEEGYYGKPALIGLEEALAIEGLSLHFYGKKETRPYRKMGHFTVVDRDVERALEKALRAKKILKVVSEEGAMCQG | not soluble
16 | MAREELRRHLVGLIERSRVVIFSKSYCPHSTRVKELFSSLGVECNVLELDQVDDGARVQEVLSEITNQKTVPNIFVNKVHVGGCDQTFQAYQSGLLQKLLQEDLAYDAENLYFQ | soluble
17 | MGSDKIHHHHHHMIHWLKVPNNPELAKYIACYWFLEKLPNAEGHNDYPKLNPDPASHLILALPQQNFRYKSDNGVTQMDGCHWLHPHGKTYELDHAKAVACIGIKFHVGALYSLPTFMDLQEQTPQAVVDTVEAISFENINFAQSNFDDHKLSDNNQLNEHDLVILARNSPDDCAEMLDKLCLPWLLKNHEDNHSELTRKVLPLLAKAAINSLGDTLFCSQRTLERSFLKVSGVTLKQCQSMNRLEAILEFLYQREQSDIDWVDIAYQFGFSDQPHLIRYLKKQLGLTPQDYALQRGFTIDVYGGVDSL | not soluble
18 | MGSDKIHHHHHHMEEKLSDVKVSGSGSIGGGNYDEVKISGSAKINGNVNCNSYMCSGSSTANGNITAKEIVKISGTTKVHGDLNSGDLIVSGSSRTFGNVTAKKIKISGSSDIEGNVHTDSIDISGSVSIGEDCEAEHFHARGGFEIAGLLNAGDIEIYMYGKCRVKDIGGENITVKLGSGHFIHEMMNLFFTRGRLVTSIIEGDNIYLEHTDAKIVRGNNITIGPNCNIENIEYKNQLNMDQSCKALCKKVDE | not soluble
19 | MDTRDGNEKTRDAILDAAVMHVPFDGWSETTLRAAIRDSGVAPGLARALFPRGGVDLALAYHRRGDERMLEKAAAADLGALRYSERVAALIRFRLEAVEDKELVRRGSTLFSLPQHAGDGARALWGTADRIWTALGDSSRDLNWYTKRATLSAVYAATVLYWLGDDTPGHYATWEFLDRRIADVLRFEKMKTEAQRNPLLRAVTAGPRMVMRRVHAPAPPADVPGRSSRFLEHHHHHH | soluble
20 | MAKKTSSKGKLPPGPLPLPGLGNLLHVDFQNTPYCFDQLRRRFGDVFSLQLAWTPVVVLNGLAAVREALVTHGEDTADRPPVPITQILGFGPRSQGVFLARYGPAWREQRRFSVSTLRNLGLGKKSLEQWVTEEAACLCAAFANHSGRPFRPNGLLDKAVSNVIASLTCGRRFEYDDPRFLRLLDLAQEGLKEESGFLREVLNAVPVDRHIPALAGKVLRFQKAFLTQLDELLTEHRMTWDPAQPPRDLTEAFLAEMEKAKGNPESSFNDENLRIVVADLFSAGMVTTSTTLAWGLLLMILHPDVQRRVQQEIDDVIGQVRRPEMGDQAHMPYTTAVIHEVQRFGDIVPLGMTHMTSRDIEVQGFRIPKGTTLITNLSSVLKDEAVWEKPFRFHPEHFLDAQGHFVKPEAFLPFSAGRRACLGEPLARMELFLFFTSLLQHFSFSVPTGQPRPSHHGVFAFLVSPSPYELCAVPRHHHH | soluble
21 | MAPKRLMVEHALARAKEAAGLADVKKVYTYYGDEACTVFIGRTKQGKAVVVWVPEKKGSVVVKGVDSGISEAEARAILQRDRRPRRIIDATLGMEKGVPLWELTYIDAEGRYSFYYLHFADGAFLKRYSFQQ | not soluble

— the DeepSol protein solubility set
